B1: HDV Ribozyme (parent)
chain: GGCCGGCAUGGUCCCAGCCUCCUCGCUGGCGCCGGCUGGGCAACAUUCCGAGGGGACCGUCCCCUCGGUAAUGGCGAAUGGGACCCA

The series covers variants of B1. Nature of the series: self-cleavage, relative activity (ratio to wild type); higher = more cleavage; co-transcriptional.
Turning to GGCCGGCAUGAUCCCAGCCUCCUCGCUGGCGCCGGCUGGGCAACAUUCCGAGGGGACCGUCCCCUCGGUAAUGGCGAAUGGGACCAA, the self-cleavage was found to be 0.535. As for GGCCGGCAUGAUCCCAGCCUCCUCGCUGGCGCCGGCUGGGCAACAUUCCGAGGGGACCGUCCCCUCGGUAAUGGCGAAUGGGACCGA, the self-cleavage was found to be 0.306. For GGCCGGCAUGAUCCCAGCCUCAUCGCUGGCGCCGGCUGGGCAACAUUCCGAGGGGACCGUCCCCUCGGUAAUGGCGAAUGGGACCCA the value was 0.0443; for GGCCGGCAUGAUCCCAGCCUCUUCGCUGGCGCCGGCUGGGCAACAUUCCGAGGGGACCGUCCCCUCGGUAAUGGCGAAUGGGACCCA, 0.041. Take GGCCGGCAUGAUCCCAGCCUCCUCGCUGGCGCCGGCUGGGCAACAUUCCGAGAGGACCGUCCCCUCGGUAAUGGCGAAUGGGACCCA: the self-cleavage turned out to be 0.437. For GGCCGGCAUUGUCCCAGCCUCCUCGCUGGCGCCGGCUGGGCAACAUUCCGAGGGGACCGUCCCCUCGGUAAUAGCGAAUGGGACCCA the value was 0.235; for GGCCGGCAUUGUCCCAGCCUCCUCGCUGGCGCCGGCUGGGCAACAUUCCGAGGGGACCGUCCCCUCGGUAAUGUCGAAUGGGACCCA, 0.0594. Then GGCCGGCAUUGUCCCAGCCUCCUCGCUGGCGCCGGCCGGGCAACAUUCCGAGGGGACCGUCCCCUCGGUAAUGGCGAAUGGGACCCA, with 0.587; and GGCCGGCAUGCUCCCAGCCUCCUCGCUGGCGCCGGCUGGGCAACAUUCCGAGGGGGCCGUCCCCUCGGUAAUGGCGAAUGGGACCCA, with 0.172.

In the case of GGCCGGCAUGAUCGCAGCCUCCUCGCUGGCGCCGGCUGGGCAACAUUCCGAGGGGACCGUCCCCUCGGUAAUGGCGAAUGGGACCCA, the self-cleavage worked out at 0.0346. For GGCCGGCAUUGUCCCAGCCUCCUCGCUGGCGCCGGCUGGGCAACAUUCCGAGGGGACCGUCCCCUCGGUAACGGCGAAUGGGACCCA the value was 0.193. For GGCCGGCAUGAUCCCAGCCUCCUCGCUGGCGCCGGCUGGGCAAAAUUCCGAGGGGACCGUCCCCUCGGUAAUGGCGAAUGGGACCCA the value was 0.187. Then GGCCGGCAUUGUCCCAGCCUCCUCGCUGGCGCCGGCUGGGCAACAUUCCGAGGGGACCGUCCCCUCGGUAAUGGCUAAUGGGACCCA, with 1.14; and GGCCGGCAUGAUCCCAGCCUCCUCGCUGGCGCCGGCUGGGCAACAUUCCGAGGGGACCGUCCCCUCGGUAAUGGCGAAUGGGUCCCA, with 0.203; and GGCCGGCAUGAUCCCAGCCUCCUCGCUGGCGCCGGCUGGGCAACAUUCCGAGGGGACCGUCCCCUCGGUAAUGGCGAAUGGGGCCCA, with 0.0831. As for GGCCGGCAUGAUCCCAGCCUCCUCGCUGGCGCCGGCUGGGCAACAUACCGAGGGGACCGUCCCCUCGGUAAUGGCGAAUGGGACCCA, the self-cleavage was found to be 0.249.

As for GGCCGGCAUGAUCCCAGCCUCCUCGCUGGCGCCGGCUGGGCAACAUUCCGAGGGGACCGUCCGCUCGGUAAUGGCGAAUGGGACCCA, the self-cleavage came to 0.514. As to GGCCGGCAUGAUCCCAGCCUCCUCGCUGGCGCCGGCUGGGCAACAUUCCGAGGGGACCGUCCACUCGGUAAUGGCGAAUGGGACCCA, the self-cleavage was determined as 0.345.

With GGCCGGCAUGAUCCCAGCCUCCUCGCUGUCGCCGGCUGGGCAACAUUCCGAGGGGACCGUCCCCUCGGUAAUGGCGAAUGGGACCCA, the self-cleavage was 0.12. GGCCGGCAUGAUCCCAGCCUCCUCGCUGGCGCCGGCUGGGCAACAUUCCGAGGGGACCGUUCCCUCGGUAAUGGCGAAUGGGACCCA: the self-cleavage came out at 0.529. For GGCCGGCAUGAUCCCAGCCUCCUCGCUGGCGCCGGCUGGGCAACAUUCCGAGGGGACCGUCCCCUCGGUAAUGGUGAAUGGGACCCA the value was 0.144. Then GGCCGGCAUGAUCCCAGCCUCCUCGCUGGCGCCGGCUGGGCAACCUUCCGAGGGGACCGUCCCCUCGGUAAUGGCGAAUGGGACCCA, with 0.155. For GGCCGGCAUGAUCCCAGCCUCCUCGCUGGCGCCGGCUGGGCAACUUUCCGAGGGGACCGUCCCCUCGGUAAUGGCGAAUGGGACCCA, the self-cleavage came out at 0.222. Then GGCCGGCAUGAUCCCAGCCUCCUCGCUGGCGCCGGCUGGGCAACGUUCCGAGGGGACCGUCCCCUCGGUAAUGGCGAAUGGGACCCA, with 0.403. Consider GGCCGGCAUGAUCCCAGCCUCCUCGCUGGCGCCGGCUGGGCAACAUUCCGAGGGAACCGUCCCCUCGGUAAUGGCGAAUGGGACCCA, for which the self-cleavage stood at 0.499. In the case of GGCCGGCAUUGUCCCAGCCUCCUCGCUGGCGCCGGCUGGGCAACAUUCCGAGGGGACCGUCCCCUCGGUAAUGGCGAAGGGGACCCA, the self-cleavage was found to be 0.38.

For the variant GGCCGGCAUUGUCCCAGCCUCCUCGCUGGCGCCGGCUGGGCAACAUUCCGAGGGGACCGUCCCCUCGUUAAUGGCGAAUGGGACCCA, the self-cleavage came to 0.727. Regarding GGCCGGCAUUGUCCCAGCCUCCUCGCUGGCGCCGGCUGGGCAACAUUCCGAGGGGACCGUCCCCUCGCUAAUGGCGAAUGGGACCCA, the self-cleavage stood at 0.564. Take GGCCGGCAUGAUCCCAGCCUCCUCGCUGGCGCCGGCUGGGCAACAUUCCGAGGGGGCCGUCCCCUCGGUAAUGGCGAAUGGGACCCA: the self-cleavage was 0.346. Then GGCCGGCAUGCUCCCAGCCUCCUCGCUGGCGCCGGCUGGGCAGCAUUCCGAGGGGACCGUCCCCUCGGUAAUGGCGAAUGGGACCCA, with 0.0536.

Consider GGCCGGCAUUGUCCCAGCCUCCUCGCUGGCGCCGGCUGGGCAACAUUCCGAGGGGACCGUCCCCUCGGUAAUGGCGAAUUGGACCCA, for which the self-cleavage turned out to be 0.0944. For the variant GGCCGGCAUGAUCCCAGCCUCCUCGCUUGCGCCGGCUGGGCAACAUUCCGAGGGGACCGUCCCCUCGGUAAUGGCGAAUGGGACCCA, the self-cleavage worked out at 0.0339.

As to GGCCGGCAUGCUCCCAGCCUCCUCGCUGGCGCCGGCUGGGCAACUUUCCGAGGGGACCGUCCCCUCGGUAAUGGCGAAUGGGACCCA, the self-cleavage worked out at 0.0554. Turning to GGCCGGCAUGAUCCCAGCCUCCUCGCUGGCGCCGGCUGGGCAACACUCCGAGGGGACCGUCCCCUCGGUAAUGGCGAAUGGGACCCA, the self-cleavage amounted to 0.166. For GGCCGGCAUGCUCCCAGCCUCCUCGCUGGCGCCGGCUGGGCCACAUUCCGAGGGGACCGUCCCCUCGGUAAUGGCGAAUGGGACCCA the value was 0.0346; for GGCCGGCAUGAUCCCAGCCUCCUCGCUGGCUCCGGCUGGGCAACAUUCCGAGGGGACCGUCCCCUCGGUAAUGGCGAAUGGGACCCA, 0.0475. For the variant GGCCGGCAUGAUCCCAGCCUCCUCGCUGGCGCCGGCUGGGCAACAUUCCGAGGGGACCGUCCCCUCGCUAAUGGCGAAUGGGACCCA, the self-cleavage was found to be 0.256. For the variant GGCCGGCAUGAUCCCAGCCUCCUCGCUGGCGCCGGCUGGGCAACAUUCCGAGGGGACCGUCCCCUCGGUAAUGGCGAAUGGCACCCA, the self-cleavage came out at 0.0739. Then GGCCGGCAUGCUCCCUGCCUCCUCGCUGGCGCCGGCUGGGCAACAUUCCGAGGGGACCGUCCCCUCGGUAAUGGCGAAUGGGACCCA, with 0.434. Then GGCCGGCAUUGUCCCAGCCUCCUCGCUGGCGCCGGCUGGGCAACAUUCCGAGGGGACCGUCCCCACGGUAAUGGCGAAUGGGACCCA, with 0.665; and GGCCGGCAUGCUCCCAGCCUCCUCGCUGGCGCCGGCUGGGCAACAUUCCGAGGGGACCGUCCCCUCGGUAAUGGCGAUUGGGACCCA, with 0.0437; and GGCCGGCAUGCUCCCAGCCUCCUCGCUGGCGCCGGCUGGGCAACAUUCCGAGGGGACCGUCCCCUCGGUAAUGGCGAGUGGGACCCA, with 0.229.

Take GGCCGGCAUGAUCCCAGCCUCCGCGCUGGCGCCGGCUGGGCAACAUUCCGAGGGGACCGUCCCCUCGGUAAUGGCGAAUGGGACCCA: the self-cleavage was found to be 0.13.

On to GGCCGGCAUGAUCCCAGCGUCCUCGCUGGCGCCGGCUGGGCAACAUUCCGAGGGGACCGUCCCCUCGGUAAUGGCGAAUGGGACCCA, for which the self-cleavage came to 0.0231.

Turning to GGCCGGCAUGAUCCCAGCUUCCUCGCUGGCGCCGGCUGGGCAACAUUCCGAGGGGACCGUCCCCUCGGUAAUGGCGAAUGGGACCCA, the self-cleavage was 0.073. For GGCCGGCAUGAUCCCAGCCUCCUCGCUGGCGCCGGCUGGGCAACAUUCCGAGGGGACCGUCCCCUCGGAAAUGGCGAAUGGGACCCA the value was 0.166; for GGCCGGCAUGAUCCCAGCCUCCUCGGUGGCGCCGGCUGGGCAACAUUCCGAGGGGACCGUCCCCUCGGUAAUGGCGAAUGGGACCCA, 0.99.

Turning to GGCCGGCAUGAUCCCAGCCUCCUCGAUGGCGCCGGCUGGGCAACAUUCCGAGGGGACCGUCCCCUCGGUAAUGGCGAAUGGGACCCA, the self-cleavage was 0.878.

Regarding GGCCGGCAUGAUCCCAGCCUCCUCGCUGGCGCCGACUGGGCAACAUUCCGAGGGGACCGUCCCCUCGGUAAUGGCGAAUGGGACCCA, the self-cleavage amounted to 0.272.

As for GGCCGGCAUGAUCCCAGCCUCCUCGCUGGCGCCGCCUGGGCAACAUUCCGAGGGGACCGUCCCCUCGGUAAUGGCGAAUGGGACCCA, the self-cleavage is 0.0536.

For GGCCGGCAUGAUCCCAGCCUCCUCGCUGGCGCCGGCUGGGCAACAUUCCGAGGGGACCAUCCCCUCGGUAAUGGCGAAUGGGACCCA, the self-cleavage was 0.38. Regarding GGCCGGCAUGAUCCCAGCCUCCUCGCUGGCGCCGGCUGGGCAACAUUCCGAGGGGACCGUCCCCUGGGUAAUGGCGAAUGGGACCCA, the self-cleavage is 0.424.

Turning to GGCCGGCAUGAUCCCAGCCUCCUCGCUGGCGCCGGCUGGGCAACAUUCCGAGGGGACCGUCCCCUAGGUAAUGGCGAAUGGGACCCA, the self-cleavage came to 0.308. For GGCCGGCAUGAUCCCAGCCUCCUCGCUGGCGCCGGCUGGGCAACAUUCCGAGGGGACCGUCCCCUUGGUAAUGGCGAAUGGGACCCA the value was 0.431. Then GGCCGGCAUGAUCCCAGCCUCCUCGCUGGCGACGGCUGGGCAACAUUCCGAGGGGACCGUCCCCUCGGUAAUGGCGAAUGGGACCCA, with 0.0231; and GGCCGGCAUGAUCCCAGCCUCCUCGCUGGCGCCGGCUGGGCAACAUUCCGAGGGGACCGUCCCCUCCGUAAUGGCGAAUGGGACCCA, with 0.456; and GGCCGGCAUUGUCCCAGCCUCCUCGCUGGCGCCGGCUGGGCAACAUUCCGAGGGGACCGUCCCCUCGGUAAUGGCGAAUGCGACCCA, with 0.101. Then GGCCGGCAUUGUCCCAGCCUCCUCGCUGGCGCCGGCUGGGCAACAUUCCGAGGGGACCGUCCCCUCGGUAAUGGCGAAUGUGACCCA, with 0.0791; and GGCCGGCAUGAUCCCAGCCUCCUCGCUGGCGCCGGCUGGGCAACAUUCCGAGGGGACCGUCCCCCCGGUAAUGGCGAAUGGGACCCA, with 0.277. In the case of GGCCGGCAUGAUCCCAGCCUCCUCGCUGGCGCCGGCUGGGCAACAUUCCGAGGGGACCGUCCCCGCGGUAAUGGCGAAUGGGACCCA, the self-cleavage worked out at 0.305.

In the case of GGCCGGCAUGCUCCCAGCCUCCUCGCUGGCGCCGGCUGGGCAACAUUCCGUGGGGACCGUCCCCUCGGUAAUGGCGAAUGGGACCCA, the self-cleavage worked out at 0.426.

Take GGCCGGCAUGAUCCCAGCCUCCUCGCUGGCGCCGGCUGGGCAACAUUCCGAGGGGACCGUCCCAUCGGUAAUGGCGAAUGGGACCCA: the self-cleavage was 0.475. For GGCCGGCAUGAUCCUAGCCUCCUCGCUGGCGCCGGCUGGGCAACAUUCCGAGGGGACCGUCCCCUCGGUAAUGGCGAAUGGGACCCA the value was 0.479; for GGCCGGCAUGAUCCCAGCCUCCUCGCUGGCGCCGGCUGGGCAACAUUCCGAGGGGACCGUCCCCUCGGUAAUGGCGAAUGGGACCCU, 0.495.
